Laboratory results reported in patent US20080020978A1 (Amgen, published 2008).
Bridge positions count the residues as written; N and C are the ends. Square brackets hold non-standard residues; d marks the D form. Ends that are not written are not given here. 1Nal = N[C@@H](Cc1cccc2ccccc12)C(=O)O; hArg = N=C(N)NCCCC[C@H](N)C(=O)O; Cit = NC(=O)NCCC[C@H](N)C(=O)O; Aze = O=C(O)[C@@H]1CCN1; Ahx = NCCCCCC(=O)O

B1: SEQ ID NO 900 (peptide)
peptide: Ac-[1Nal]VEH[hArg]LKGLLS[Cit]SGGVVRKNFVPTDVGPFAF-NH2
modifications: lactam 3-7
SMILES: CC(=O)N[C@@H](Cc1cccc2ccccc12)C(=O)N[C@H](C(=O)N[C@H]1CCC(=O)NCCCC[C@@H](C(=O)NCC(=O)N[C@@H](CC(C)C)C(=O)N[C@@H](CC(C)C)C(=O)N[C@@H](CO)C(=O)N[C@@H](CCCNC(N)=O)C(=O)N[C@@H](CO)C(=O)NCC(=O)NCC(=O)N[C@H](C(=O)N[C@H](C(=O)N[C@@H](CCCNC(=N)N)C(=O)N[C@@H](CCCCN)C(=O)N[C@@H](CC(N)=O)C(=O)N[C@@H](Cc2ccccc2)C(=O)N[C@H](C(=O)N2CCC[C@H]2C(=O)N[C@H](C(=O)N[C@@H](CC(=O)O)C(=O)N[C@H](C(=O)NCC(=O)N2CCC[C@H]2C(=O)N[C@@H](Cc2ccccc2)C(=O)N[C@@H](C)C(=O)N[C@@H](Cc2ccccc2)C(N)=O)C(C)C)[C@@H](C)O)C(C)C)C(C)C)C(C)C)NC(=O)[C@H](CC(C)C)NC(=O)[C@H](CCCCNC(=N)N)NC(=O)[C@H](Cc2c[nH]cn2)NC1=O)C(C)C
B2: SEQ ID NO 903 (peptide)
peptide: Ac-WVTHRLEGLLKQSGGVV[hArg]KNFVPTDVGPFAF-NH2
SMILES: CC(=O)N[C@@H](Cc1c[nH]c2ccccc12)C(=O)N[C@H](C(=O)N[C@H](C(=O)N[C@@H](Cc1c[nH]cn1)C(=O)N[C@@H](CCCNC(=N)N)C(=O)N[C@@H](CC(C)C)C(=O)N[C@@H](CCC(=O)O)C(=O)NCC(=O)N[C@@H](CC(C)C)C(=O)N[C@@H](CC(C)C)C(=O)N[C@@H](CCCCN)C(=O)N[C@@H](CCC(N)=O)C(=O)N[C@@H](CO)C(=O)NCC(=O)NCC(=O)N[C@H](C(=O)N[C@H](C(=O)N[C@@H](CCCCNC(=N)N)C(=O)N[C@@H](CCCCN)C(=O)N[C@@H](CC(N)=O)C(=O)N[C@@H](Cc1ccccc1)C(=O)N[C@H](C(=O)N1CCC[C@H]1C(=O)N[C@H](C(=O)N[C@@H](CC(=O)O)C(=O)N[C@H](C(=O)NCC(=O)N1CCC[C@H]1C(=O)N[C@@H](Cc1ccccc1)C(=O)N[C@@H](C)C(=O)N[C@@H](Cc1ccccc1)C(N)=O)C(C)C)[C@@H](C)O)C(C)C)C(C)C)C(C)C)[C@@H](C)O)C(C)C
B3: SEQ ID NO 908 (peptide)
peptide: Ac-WVEH[hArg]LKGLLS[Cit]SGGVV[hArg]KNFVPTDVGPFAF-NH2
modifications: lactam 3-7
SMILES: CC(=O)N[C@@H](Cc1c[nH]c2ccccc12)C(=O)N[C@H](C(=O)N[C@H]1CCC(=O)NCCCC[C@@H](C(=O)NCC(=O)N[C@@H](CC(C)C)C(=O)N[C@@H](CC(C)C)C(=O)N[C@@H](CO)C(=O)N[C@@H](CCCNC(N)=O)C(=O)N[C@@H](CO)C(=O)NCC(=O)NCC(=O)N[C@H](C(=O)N[C@H](C(=O)N[C@@H](CCCCNC(=N)N)C(=O)N[C@@H](CCCCN)C(=O)N[C@@H](CC(N)=O)C(=O)N[C@@H](Cc2ccccc2)C(=O)N[C@H](C(=O)N2CCC[C@H]2C(=O)N[C@H](C(=O)N[C@@H](CC(=O)O)C(=O)N[C@H](C(=O)NCC(=O)N2CCC[C@H]2C(=O)N[C@@H](Cc2ccccc2)C(=O)N[C@@H](C)C(=O)N[C@@H](Cc2ccccc2)C(N)=O)C(C)C)[C@@H](C)O)C(C)C)C(C)C)C(C)C)NC(=O)[C@H](CC(C)C)NC(=O)[C@H](CCCCNC(=N)N)NC(=O)[C@H](Cc2c[nH]cn2)NC1=O)C(C)C
B4: SEQ ID NO 909 (peptide)
peptide: Ac-WVEH[hArg]LKGLLS[Cit]SG[Aze]VV[hArg]KNFVPTDVGPFAF-NH2
modifications: lactam 3-7
SMILES: CC(=O)N[C@@H](Cc1c[nH]c2ccccc12)C(=O)N[C@H](C(=O)N[C@H]1CCC(=O)NCCCC[C@@H](C(=O)NCC(=O)N[C@@H](CC(C)C)C(=O)N[C@@H](CC(C)C)C(=O)N[C@@H](CO)C(=O)N[C@@H](CCCNC(N)=O)C(=O)N[C@@H](CO)C(=O)NCC(=O)N2CC[C@H]2C(=O)N[C@H](C(=O)N[C@H](C(=O)N[C@@H](CCCCNC(=N)N)C(=O)N[C@@H](CCCCN)C(=O)N[C@@H](CC(N)=O)C(=O)N[C@@H](Cc2ccccc2)C(=O)N[C@H](C(=O)N2CCC[C@H]2C(=O)N[C@H](C(=O)N[C@@H](CC(=O)O)C(=O)N[C@H](C(=O)NCC(=O)N2CCC[C@H]2C(=O)N[C@@H](Cc2ccccc2)C(=O)N[C@@H](C)C(=O)N[C@@H](Cc2ccccc2)C(N)=O)C(C)C)[C@@H](C)O)C(C)C)C(C)C)C(C)C)NC(=O)[C@H](CC(C)C)NC(=O)[C@H](CCCCNC(=N)N)NC(=O)[C@H](Cc2c[nH]cn2)NC1=O)C(C)C
B5: SEQ ID NO 910 (peptide)
peptide: Ac-[1Nal]VEH[hArg]LKGLLS[Cit]SG[Aze]VV[hArg]KNFVPTDVGPFAF-NH2
SMILES: CC(=O)N[C@@H](Cc1cccc2ccccc12)C(=O)N[C@H](C(=O)N[C@@H](CCC(=O)O)C(=O)N[C@@H](Cc1c[nH]cn1)C(=O)N[C@@H](CCCCNC(=N)N)C(=O)N[C@@H](CC(C)C)C(=O)N[C@@H](CCCCN)C(=O)NCC(=O)N[C@@H](CC(C)C)C(=O)N[C@@H](CC(C)C)C(=O)N[C@@H](CO)C(=O)N[C@@H](CCCNC(N)=O)C(=O)N[C@@H](CO)C(=O)NCC(=O)N1CC[C@H]1C(=O)N[C@H](C(=O)N[C@H](C(=O)N[C@@H](CCCCNC(=N)N)C(=O)N[C@@H](CCCCN)C(=O)N[C@@H](CC(N)=O)C(=O)N[C@@H](Cc1ccccc1)C(=O)N[C@H](C(=O)N1CCC[C@H]1C(=O)N[C@H](C(=O)N[C@@H](CC(=O)O)C(=O)N[C@H](C(=O)NCC(=O)N1CCC[C@H]1C(=O)N[C@@H](Cc1ccccc1)C(=O)N[C@@H](C)C(=O)N[C@@H](Cc1ccccc1)C(N)=O)C(C)C)[C@@H](C)O)C(C)C)C(C)C)C(C)C)C(C)C
B6: SEQ ID NO 916 (peptide)
peptide: C[Ahx]WVTHRLAGLLSRSGGVVRKNFVPTDVGPFAF-NH2
modifications: N-terminus assumed
SMILES: CC(C)C[C@H](NC(=O)CNC(=O)[C@H](C)NC(=O)[C@H](CC(C)C)NC(=O)[C@H](CCCNC(=N)N)NC(=O)[C@H](Cc1c[nH]cn1)NC(=O)[C@@H](NC(=O)[C@@H](NC(=O)[C@H](Cc1c[nH]c2ccccc12)NC(=O)CCCCCNC(=O)[C@@H](N)CS)C(C)C)[C@@H](C)O)C(=O)N[C@@H](CC(C)C)C(=O)N[C@@H](CO)C(=O)N[C@@H](CCCNC(=N)N)C(=O)N[C@@H](CO)C(=O)NCC(=O)NCC(=O)N[C@H](C(=O)N[C@H](C(=O)N[C@@H](CCCNC(=N)N)C(=O)N[C@@H](CCCCN)C(=O)N[C@@H](CC(N)=O)C(=O)N[C@@H](Cc1ccccc1)C(=O)N[C@H](C(=O)N1CCC[C@H]1C(=O)N[C@H](C(=O)N[C@@H](CC(=O)O)C(=O)N[C@H](C(=O)NCC(=O)N1CCC[C@H]1C(=O)N[C@@H](Cc1ccccc1)C(=O)N[C@@H](C)C(=O)N[C@@H](Cc1ccccc1)C(N)=O)C(C)C)[C@@H](C)O)C(C)C)C(C)C)C(C)C

Molecular target: CGRP1 receptor (CRLR/RAMP1 complex) of human neuroblastoma SK-N-MC cells (human, UniProt Q16602 23-461; O60894 27-148)
Sequence (Q16602 23-461, chain 1 of 2): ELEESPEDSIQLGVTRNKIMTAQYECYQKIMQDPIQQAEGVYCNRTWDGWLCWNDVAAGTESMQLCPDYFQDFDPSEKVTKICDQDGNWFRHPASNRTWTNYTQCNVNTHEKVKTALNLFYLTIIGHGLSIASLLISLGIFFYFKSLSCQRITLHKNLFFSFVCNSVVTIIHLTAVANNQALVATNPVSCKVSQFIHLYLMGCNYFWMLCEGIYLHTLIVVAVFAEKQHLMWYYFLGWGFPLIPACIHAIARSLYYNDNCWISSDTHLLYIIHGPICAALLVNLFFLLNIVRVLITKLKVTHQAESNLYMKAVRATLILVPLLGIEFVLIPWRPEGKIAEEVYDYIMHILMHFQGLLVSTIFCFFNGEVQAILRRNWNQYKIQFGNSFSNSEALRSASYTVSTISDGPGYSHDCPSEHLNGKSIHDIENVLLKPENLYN
Sequence (O60894 27-148, chain 2 of 2): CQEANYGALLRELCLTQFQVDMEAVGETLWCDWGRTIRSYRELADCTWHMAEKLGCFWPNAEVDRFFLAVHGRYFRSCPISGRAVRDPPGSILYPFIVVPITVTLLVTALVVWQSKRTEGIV
Test: cell-based or functional assay

| Binder | Peptide IC50 | PEG-peptide IC50 |
| --- | --- | --- |
| B1 | 2.43 nM |  |
| WVEHRLKGELSRKGGVVXKNFVPTDVGPFAF (Ac-WVEHRLKGELSRKGGVV[hArg]KNFVPTDVGPFAF-NH2) [SEQ ID NO 901] | 1.02 nM |  |
| WVEHRLKGELSXKGGVVXKNFVPTDVGPFAF (Ac-WVEHRLKGELS[Cit]KGGVV[hArg]KNFVPTDVGPFAF-NH2) [SEQ ID NO 902] | 0.49 nM |  |
| B2 | 3.5 nM |  |
| Ac-WVEHRLKGLLSQSGGVV[hArg]KNFVPTDVGPFAF-NH2 (lactam 3-7) [SEQ ID NO 904] | 2.03 nM |  |
| Ac-WVEHRLKGLLSQSGGVV[hArg]KNFVPTDVGPFAF-NH2 (lactam 3-7; also: PEG-conjugated, in most cases at Lys25) [PEG-peptide of SEQ ID NO 904] |  | 6.73 nM |
| Ac-WVEHRLKGLLS[hArg]SGGVV[hArg]KNFVPTDVGPFAF-NH2 (lactam 3-7) [SEQ ID NO 905] | 1.7 nM |  |
| Ac-WVEHRLKGLLS[hArg]SGGVV[hArg]KNFVPTDVGPFAF-NH2 (lactam 3-7; also: PEG-conjugated, in most cases at Lys25) [PEG-peptide of SEQ ID NO 905] |  | 3.7 nM |
| Ac-WVEHRLKGLLS[Cit]SGGVV[hArg]KNFVPTDVGPFAF-NH2 (lactam 3-7) [SEQ ID NO 906] | 1.15 nM |  |
| Ac-WVEHRLKGLLS[Cit]SGGVV[hArg]KNFVPTDVGPFAF-NH2 (lactam 3-7; also: PEG-conjugated, in most cases at Lys25) [PEG-peptide of SEQ ID NO 906] |  | 2.29 nM |
| Ac-WVEH[Cit]LKGLLS[Cit]SGGVV[hArg]KNFVPTDVGPFAF-NH2 (lactam 3-7; also: PEG-conjugated, in most cases at Lys25) [PEG-peptide of SEQ ID NO 907] |  | 4.87 nM |
| B3 | 1.28 nM |  |
| B4 | 3.45 nM |  |
| B5 | 2.31 nM |  |
| WVTHRLAGLLSRSGGVVRKNXVPTDVGPFAF (Ac-WVTHRLAGLLSRSGGVVRKN[2-Nal]VPTDVGPFAF-NH2) [SEQ ID NO 912] | 1.16 nM |  |
| WVTHRLAGLLSRSGGVVRKNFVPTDVGPFAX (Ac-WVTHRLAGLLSRSGGVVRKNFVPTDVGPFA[2-Nal]-NH2) [SEQ ID NO 913] | 1.72 nM |  |
| WVTHRLAGLLSRSGGVVRKNFVPTDVGPFAX (Ac-WVTHRLAGLLSRSGGVVRKNFVPTDVGPFA[1-Nal]-NH2) [SEQ ID NO 914] | 33.1 nM |  |
| Ac-WVTHRLAGLLSRSGGVVRKNFVPTDVGSKAF-NH2 [SEQ ID NO 915] | 1.15 nM |  |
| B6 | 1.8 nM |  |
| Ac-WVTHRLAGLLSRSGGVVRKNFVPTDVGPKAF-NH2 [SEQ ID NO 917] | 1 nM |  |
